The source of these data is patent US20100204099A1 (ALBERT EINSTEIN COLLEGE OF MEDICINE OF YESHIVA UNIVERSITY, published 2010).

Where no end group is shown, it is not given here.

Test [1] concerns the target T1, IGF binding protein-3 (IGFBP-3) (human, UniProt P17936 28-291, 125-I-labeled when used as probe in the dot blot).
T1 construct: also called hIGFBP-3; non glycosylated hIGFBP-3
The test can be described thus: dot blot on nitrocellulose probed with 125-I-labeled IGFBP-3, autoradiography and densitometry (FIG. 17A).

Test [2] addresses T1, IGF binding protein-3 (IGFBP-3). Kind of test: dot blot of peptides probed with 125-I-labeled IGFBP-3 (FIG. 17A).

T1 sequence (P17936 28-291 limits assumed): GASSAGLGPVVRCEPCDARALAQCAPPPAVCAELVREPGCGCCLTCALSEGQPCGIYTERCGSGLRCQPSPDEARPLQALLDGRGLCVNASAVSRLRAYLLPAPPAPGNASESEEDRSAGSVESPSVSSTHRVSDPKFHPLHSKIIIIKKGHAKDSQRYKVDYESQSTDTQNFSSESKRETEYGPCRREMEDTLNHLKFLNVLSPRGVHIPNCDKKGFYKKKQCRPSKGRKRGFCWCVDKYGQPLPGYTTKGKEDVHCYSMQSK

For the molecule MAPRGASCLLLLTSEIDLPVKRRA (also called F6A HN; F6A-HN) [Humanin analog F6A], in test [1], the binding result was “no binding (tested: 50 ng of peptide blotted)”.

B1: Humanin (peptide)
peptide: MAPRGFSCLLLLTSEIDLPVKRRA
notes: 50 ng was spotted on nitrocellulose in the dot blot; also called HN; human humanin
Take B1: the binding result in test [2] is “binds”.
For MAPRGASCLLLLTGEIDLPVKRRA (not fully specified, also called F6AHNG; HN) [Humanin analog HNGF6A], the binding result in test [1] is listed as “no binding (tested: 50 ng of peptide blotted)”.
